Experimental data reported in the supplement of paper PMC9170038.

Legend:
MS2 coat protein [1] = assay: apparent KD of MS2 coat protein; designed switch direction (-1 OFF switch, 1 ON switch): 1; higher = weaker reporter binding
In short: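 Each step of the titration lasted 0.8–1.5 h at the lowest concentration and 10–20 min at the highest. The protein, SNAP-549-labelled MS2 coat protein, went from 0.7 or 1.5 nM doubling to 3 µM over RNA switches transcribed on Illumina chips by stalled E. coli RNA polymerase. Normalised cluster fluorescence was curve-fitted, and the per-design median over clusters is given as apparent KD.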

MS2 coat protein [2] = assay: apparent KD of MS2 coat protein; higher = weaker reporter binding; settings: Eterna round: R107
In short: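 Apparent KD is reported per design as the median of normalised binding-curve fits across its clusters. The RNA switches were made by on-chip transcription from Illumina sequencing clusters. SNAP-549-labelled MS2 coat protein was then added in twofold steps (0.7 or 1.5 nM to 3 µM; 0.8–1.5 h to 10–20 min per step) in 100 mM Tris-HCl pH 7.5, 80 mM KCl, 4 mM MgCl2, without or with constant ligand.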

[3] = input ligand: microRNA oligo, concentration not stated
[4] = Eterna round: R95, input ligand: FMN 200 uM
[5] = Eterna round: R95, input ligand: microRNA oligo, concentration not stated
[6] = Eterna round: R95, input ligand: none
[7] = input ligand: tryptophan 2.4 mM
[8] = input ligand: theophylline 20 uM
[9] = input ligand: theophylline 2 mM

Row | Sequence | apparent KD of MS2 coat protein (MS2 coat protein [1]; [3]) [nM] | apparent KD of MS2 coat protein (MS2 coat protein [1]; input ligand: FMN 200 uM) [nM] | apparent KD of MS2 coat protein (MS2 coat protein [1]; input ligand: none) [nM] | apparent KD of MS2 coat protein (MS2 coat protein [1]; [4]) [nM] | apparent KD of MS2 coat protein (MS2 coat protein [1]; [5]) [nM] | apparent KD of MS2 coat protein (MS2 coat protein [1]; [6]) [nM] | further results
1 | AAAAAACAUGAGGAUCACCCAUGUCUUUUGACAUGAGGAUAUGUACAGACUUCGGUCUGUACAGAAGGCAUGUAAA [SS1 - 1028] (Eterna round: R96, puzzle: Same State 1) | 336 | – | – | – | – | – | –
2 | AAAAGAAACACAGGAUAUACCGCACUUAACGCGGUAGAAGGGUGGGACAUGAGGAUCACCCAUGUGGUCUGGGCGCCAGACCGC [Esratean] (Eterna round: R96, puzzle: Same State NG 1) | 23.3 | 29.1 | 22 | – | – | – | –
3 | AAAAGAAACGCAGGAUAUGCACAUGAGGAUCACCCAUGUCCCACAGGCUCGACCGAGCCCGUGAAGCAGAAGGGUGUAAGAAAA [Redibere] (Eterna round: R96, puzzle: Same State NG 2) | 426 | 82.5 | 3390 | – | – | – | –
4 | AAAAGAACCACAGGAUAUACACUCCUAGCGGCGGUAGAAGGGUGGAACAUGAGGAUCACCCAUGUACGUCUGGAAUCAGACUAA [Radianis] (Eterna round: R96, puzzle: Same State NG 1) | 233 | 267 | 857 | – | – | – | –
5 | AAAAGACAUGAGGAUCACCCAUGUCAAGACGUGGGAGGAUAUGCAUGGAAAACAUGCUGUGCAGAAGGCCCGUGUC [SS1 - 20] (Eterna round: R96, puzzle: Same State 1) | 16.6 | 16.2 | 24 | – | – | – | –
6 | AAAAGACAUGAGGAUCACCCAUGUGAAAACGUAGGAGGAUAUGUCGUGAAAAAAGACUUGACAGAAGGCCUGUGUC [SS1 - 34] (Eterna round: R96, puzzle: Same State 1) | 88.9 | – | – | – | – | – | –
7 | AAAAUAUAAAGAGAGGAUAUCCAAAGAACCACAUGAGGAUCACCCAUGUAAAGAAAGAAUAAGUGGGAGAAGGCUCAAAUAAUAA [Designing denovo 24] (Eterna round: R96, puzzle: Same State 2) | 82.8 | 24.8 | 114 | – | – | – | –
8 | AAACACGGCAAAACGCCGUGACAUGAGGAUCACCCAUGUACACAGGAUAUCAUGGCAAAACACCAUGAGAAGGGUGAUCAAGAC [Zaleala] (Eterna round: R96, puzzle: Same State NG 3) | 26.1 | 30.7 | 34.9 | – | – | – | –
9 | AAACAUGAGCGAGGAUAUGCGGACGAUUACGCUGUAGAAGGCGCAUGUAAAACAACAUGAGGAUCACCCAUGUCAUGUACAUGA (Eterna round: R96, puzzle: Same State NG 1) | 50.4 | 81.3 | 83.6 | – | – | – | –
10 | AAACAUGAGGAUCACCCAUGUCGAUCAGAACUCUGAUCUGCUCAGGAUAUCCGAAUGCGCGUUUCGGAGAAGGGAGAAAUGUGA [Lareraedqu] (Eterna round: R96, puzzle: Same State NG 3) | 36.4 | 69.8 | 53.2 | – | – | – | –
11 | AAACCCAGUCUGUAGGAUAUGCACCUGCCGACAUGAGGAUCACCCAUGUACCCUAACAACAGCGUGCAGAAGGGCAGCAAUAAAA [Verilara] (puzzle: Same State 2) | – | – | – | 19.2 | 22.9 | 26.3 | –
12 | AAACGGCCCAACGGAGGGCCACAUGAGGAUCACCCAUGUACAUAGGAUAUCACGCCAACGAGGCGUGAGAAGGGUGAUUAAAAC [Bisomaor] (Eterna round: R96, puzzle: Same State NG 3) | 8.11 | 28.8 | 73.5 | – | – | – | –
13 | AAACUACAUGAGGAUCACCCAUGUGAAAACCGCAUAGGAUAUCCGCAGCAAUAAACUGACGGAGAAGGGUGACCGG [Sobearcege] (puzzle: Same State 1) | – | – | – | 306 | 414 | 549 | –
14 | AAAGAAACUACAGGAUAUGCGUGGGAAAGAUAGGCAGAAGGGUGGAUAAUAAAUUCCAGCACAUGAGGAUCACCCAUGUACUGG [Ince] (Eterna round: R96, puzzle: Same State NG 1) | 15.6 | 17 | 22.7 | – | – | – | –
15 | AAAGAACAUGAGGAUCACCCAUGUGGAAGAGGCACAGGAUAUCACCUCGCACGUGCGAGGUGAGAAGGGUGAUGGU [Zalecema] (puzzle: Same State 1) | – | – | – | 122 | 80.7 | 128 | –
16 | AAAGCACAUGAGGAUCACCCAUGUGGAAAUAACACAGGAUAUCCGGCCGAAAAUACGGUGGGAGAAGGGUGACCUA [Inxetemama] (puzzle: Same State 1) | – | – | – | 302 | 60.4 | 86.7 | –

Row | Sequence | apparent KD of MS2 coat protein (MS2 coat protein [1]; [3]) [nM] | apparent KD of MS2 coat protein (MS2 coat protein [1]; input ligand: FMN 200 uM) [nM] | apparent KD of MS2 coat protein (MS2 coat protein [1]; input ligand: none) [nM] | apparent KD of MS2 coat protein (MS2 coat protein [1]; [4]) [nM] | apparent KD of MS2 coat protein (MS2 coat protein [1]; [5]) [nM] | apparent KD of MS2 coat protein (MS2 coat protein [1]; [6]) [nM] | further results
17 | AAAGCACAUGAGGAUCACCCAUGUGGAAAUAACACAGGAUAUCCGGCCGAAACUAAGGUGGGAGAAGGGUGACCUA [Aeriste] (puzzle: Same State 1) | – | – | – | 191 | 40.2 | 73.5 | –
18 | AAAGGAUGAUGUUACAUGAGGAUCACCCAUGUAGUGAUAACUAAGGAUAUGUGUUAAACCAGUUAAUAGAAGGUAGGAUCAUUA [AK SSNG3-V2-6] (Eterna round: R96, puzzle: Same State NG 3) | 35.1 | 43.8 | 49.4 | – | – | – | –
19 | AAAGUACAUGAGGAUCACCCAUGUCCAAAAAAGUAAGGAUAUGUGGUGCGACUACGAAACACAGAAGGUACAAAAA [Malcolm Mod] (puzzle: Same State 1) | – | – | – | 30.1 | 13.3 | 81.2 | –
20 | AACAAAUACACAGGAUAUACAGCGGCAGCCACUGUAGAAGGGUGGGCGGGUUCCAACAUGAGGAUCACCCAUGUACCCAAUAAA [Gerace] (Eterna round: R96, puzzle: Same State NG 1) | 234 | 161 | 699 | – | – | – | –
21 | AACAAGUUUUUGCUCGCUUAUAAGCAUGUACAUGAGGAUCACCCAUGUCAUGUACAAAGUCCAGCCUGAGCUGGACA [Reversing mir to lane 1] (puzzle: Sensor for hsa-mir-208a) | – | – | – | 24.5 | 15.5 | 25.4 | –
22 | AACAAUCUAUCUGAGGAUAUCAUGAAAAAAACAUGAGGAUCACCCAUGUGCAGGAAAACUGCAUAUGAGAAGGCAGAUAGAUUGC [salish99_SS2_r3_004] (Eterna round: R96, puzzle: Same State 2) | 504 | – | – | – | – | – | –
23 | AACAAUCUAUCUGAGGAUAUCAUGAAAAAAACAUGAGGAUCACCCAUGUGCAGGAAAACUGCAUAUGAGAAGGCAGAUAGAUUGC [salish99_SS2_r3_004] (puzzle: Same State 2) | – | – | – | 32.5 | 785 | 1690 | –
24 | AACAAUCUAUCUGAGGAUAUCAUGAAAUAAACAUGAGGAUCACCCAUGUGCUGGAAAACUGCAUAUGAGAAGGCAGAUAGAUUGA [salish99_ss2_r3_037] (puzzle: Same State 2) | – | – | – | 32.1 | 237 | 395 | –
25 | AACAAUCUUUCUGAGGAUAUCAUGAAAUAAACAUGAGGAUCACCCAUGUGCAGGAAAACUGCAUAUGAGAAGGCAGAUAGAUUGA [salish99_ss2_r3_024] (puzzle: Same State 2) | – | – | – | 43.3 | 414 | 1220 | –
26 | UUUACCGACACAGAUCACUAAAACCUUGAUACCAGUCCCAGUGGCGACCCUUGGCAGCAAUAUACAUGAGGAUCACCCAUGUGCA [theeternabot_exclusion_MS2_Theo_A_1] | – | – | – | – | – | – | apparent KD of MS2 coat protein (MS2 coat protein [2]; input ligand: arginine 13.2 mM): 13.7 nM; apparent KD of MS2 coat protein (MS2 coat protein [2]; [7]): 13.8 nM
27 | UUUCUUUUCUUUCUUUCCUUUCAAACCGAAGGAGCGGGAACAAACCCAGGUAGGUCGCGGUGUGACAUGAGGAUCACCCAUGUGU [Exclusion - Arginine] | – | – | – | – | – | – | apparent KD of MS2 coat protein (MS2 coat protein [2]; input ligand: arginine 13.2 mM): 65.5 nM; apparent KD of MS2 coat protein (MS2 coat protein [2]; input ligand: none): 78 nM; apparent KD of MS2 coat protein (MS2 coat protein [2]; [8]): 106 nM; apparent KD of MS2 coat protein (MS2 coat protein [2]; [9]): 85 nM; apparent KD of MS2 coat protein (MS2 coat protein [2]; [7]): 58.1 nM
28 | UUUGAUAGGACAGAUACCAGCGUGUUGUUGAACAUGAGGAUCACCCAUGUAGUGAUCAAGCGCCCUUGGCAGCUGGUUUGUUAGG [7.M] | – | – | – | – | – | – | apparent KD of MS2 coat protein (MS2 coat protein [2]; input ligand: arginine 13.2 mM): 95.5 nM; apparent KD of MS2 coat protein (MS2 coat protein [2]; [8]): 240 nM; apparent KD of MS2 coat protein (MS2 coat protein [2]; [7]): 302 nM
29 | UUUUAACAUGAGGAUCACCCAUGUAAUGAUACCAGAGACGAAAGUCUCCCUUGGCAGCAUAUAUCAUUACUCAUAGGAAACUAUG [Theophylline A 6] | – | – | – | – | – | – | apparent KD of MS2 coat protein (MS2 coat protein [2]; input ligand: arginine 13.2 mM): 35.4 nM; apparent KD of MS2 coat protein (MS2 coat protein [2]; [8]): 23.5 nM; apparent KD of MS2 coat protein (MS2 coat protein [2]; [7]): 13.6 nM
30 | UUUUCAGGGUCGGCCGCCACUGGUAUGGCGAGUCCUCGAACAAACAUGAGGAUCACCCAUGUGAACAGGACCGGGACAGCAUGGG [Exclusion Tryptophan B GF 21] | – | – | – | – | – | – | apparent KD of MS2 coat protein (MS2 coat protein [2]; input ligand: arginine 13.2 mM): 97.2 nM; apparent KD of MS2 coat protein (MS2 coat protein [2]; input ligand: none): 380 nM; apparent KD of MS2 coat protein (MS2 coat protein [2]; [8]): 538 nM; apparent KD of MS2 coat protein (MS2 coat protein [2]; [9]): 645 nM; apparent KD of MS2 coat protein (MS2 coat protein [2]; [7]): 286 nM
31 | UUUUUCGCGGGUGAUACCAGCAAAGUUGUACUGGUCUGGUACAUGAGGAUCACCCAUGUUUGCCCUUGGCAGCGCUCGGGAGAAG [#22 Exclusion-TheophyllineB] | – | – | – | – | – | – | apparent KD of MS2 coat protein (MS2 coat protein [2]; input ligand: arginine 13.2 mM): 33.2 nM; apparent KD of MS2 coat protein (MS2 coat protein [2]; input ligand: none): 21 nM; apparent KD of MS2 coat protein (MS2 coat protein [2]; [8]): 39.2 nM; apparent KD of MS2 coat protein (MS2 coat protein [2]; [9]): 32.7 nM; apparent KD of MS2 coat protein (MS2 coat protein [2]; [7]): 23.5 nM
